Each block holds one binder with its values, some of them ahead of it.
Columns and labels:
[1] = biological target: T1, human LAG-3 expressed on cells (human, UniProt P18627 23-525); test: flow cytometry, biotinylated antibody + FITC-streptavidin, CD3 T cells; panel 'PBMC stimulation for 72h, PD1 antibody treated group' (cells pre-treated with unlabelled HumAb713-7)
T1 construct: whole, on cells; also called HEK 293F cells expressing human LAG-3; T hybridoma-huLAG-3 cells
T1 sequence (looked up): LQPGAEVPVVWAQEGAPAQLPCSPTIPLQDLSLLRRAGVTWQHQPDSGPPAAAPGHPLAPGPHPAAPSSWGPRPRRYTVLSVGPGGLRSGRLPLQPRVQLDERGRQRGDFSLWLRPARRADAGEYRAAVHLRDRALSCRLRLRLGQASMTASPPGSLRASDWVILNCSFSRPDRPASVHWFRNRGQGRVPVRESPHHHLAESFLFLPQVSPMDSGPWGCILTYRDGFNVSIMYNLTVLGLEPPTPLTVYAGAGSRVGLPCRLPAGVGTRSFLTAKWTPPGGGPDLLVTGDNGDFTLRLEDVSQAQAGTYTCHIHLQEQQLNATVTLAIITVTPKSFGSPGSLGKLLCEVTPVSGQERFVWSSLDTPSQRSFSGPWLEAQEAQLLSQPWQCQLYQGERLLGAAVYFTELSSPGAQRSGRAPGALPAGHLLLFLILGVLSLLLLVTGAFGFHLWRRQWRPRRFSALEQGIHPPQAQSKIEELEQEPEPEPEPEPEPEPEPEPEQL
Method: (§1) To further evaluate the cell surface binding ability of FIT107-1-7b-1, the parental antibodies HumAb713-7, HumAb747V-67, and the bispecific FIT-Ig FIT107-1-7b-1 were biotinylated with biotin reagent (Sigma, Cat. No. S3259). For PBMC without stimulation, PBMCs were re-suspended at 5×10⁶ cells/mi. For PD-1 antibody (HumAb713-7) or LAG-3 antibody (HumAb747V-67) testing, 100 μg/ml of antibody were added and the reaction mixture allowed to incubate at 37° C. for 40 minutes separately, followed by two washes with FACS buffer. Then 100 μl, 5×10⁵ PBMC/well (untreated group, anti-PD-1 antibody treated group and anti-LAG-3 antibody treated group) were seeded into wells of 96-well plate. Biotinylated HumAb713-7, HumAb747V-67 and FIT107-1-7b-1 were added and incubated at 37° C. for 40 minutes (final working concentration starting from 100 nM with 3-fold serial dilution) followed by washing with FACS buffer twice. FITC-streptavidin and BV421-anti human-CD3 antibody were added and the assay plate incubated at 4° C. for 30 minutes, followed by washing with FACS buffer twice. The plate was analyzed with a Beckman Coulter CytoFlex flow cytometer, PBMC stimulation groups were stimulated with anti-CD3 plus anti-CD28 antibody for 72 hours, to induce PD-1 and LAG-3 expression on T cells. […]

[2] = biological target: T1, human LAG-3 expressed on cells; test: flow cytometry, biotinylated antibody + FITC-streptavidin, CD3 T cells; panel 'PBMC stimulation for 72h, untreated group' (anti-CD3 plus anti-CD28)
Method: as §1

[3] = biological target: T2, recombinant human LAG-3-his protein (Novoprotein) (human, UniProt P18627 23-450); test: BLI Octet, Ab on AHC sensor, huLAG-3-his; test group 2
T2 construct: Bought; also called huLAG-3; not shown: His tag
T2 sequence (looked up): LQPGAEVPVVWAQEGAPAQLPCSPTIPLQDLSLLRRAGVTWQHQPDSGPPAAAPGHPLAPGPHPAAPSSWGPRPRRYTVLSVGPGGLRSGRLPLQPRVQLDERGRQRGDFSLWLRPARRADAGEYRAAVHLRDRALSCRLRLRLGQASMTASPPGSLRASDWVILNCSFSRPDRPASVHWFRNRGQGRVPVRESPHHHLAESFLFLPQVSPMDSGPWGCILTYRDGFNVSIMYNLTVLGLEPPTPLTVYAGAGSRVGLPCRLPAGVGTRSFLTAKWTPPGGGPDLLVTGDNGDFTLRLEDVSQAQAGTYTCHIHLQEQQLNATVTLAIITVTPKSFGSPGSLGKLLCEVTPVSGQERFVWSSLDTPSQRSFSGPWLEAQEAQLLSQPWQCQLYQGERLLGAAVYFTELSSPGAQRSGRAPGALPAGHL

Cyno LAG-3-His = Cyno LAG-3-His (cynomolgus); test: BLI Octet, FIT-Ig captured, antigen analyte
Cyno PD-1-His = Cyno PD-1-His (cynomolgus, UniProt B0LAJ3 25-170); test: BLI Octet, FIT-Ig captured, antigen analyte
[4] = biological target: T2, recombinant human LAG-3-his protein …; test: BLI Octet, FIT-Ig captured, antigen analyte
human PD-1-His protein [5] = biological target: T3, human PD-1-His protein (human, UniProt Q15116 25-167, limits assumed); test: BLI Octet, FIT-Ig captured, antigen analyte
T3 construct: also called huPD-1; not shown: His tag

[6] = biological target: T1, human LAG-3 expressed on cells; test: flow cytometry, biotinylated FIT-Ig + FITC-streptavidin, CD3 T cells; panel 'PBMC stimulation for 72h, PD1 antibody treated group'; PD-1 pre-blocked with unlabelled HumAb713-7, so the signal is laid to LAG-3
Method: as §1

[7] = biological target: T4, human PD-1 expressed on cells (human, UniProt Q15116 25-288); test: flow cytometry, biotinylated antibody + FITC-streptavidin, CD3 T cells; panel 'PBMC stimulation for 72h, Lag3 antibody treated group' (cells pre-treated with unlabelled HumAb747V-67)
T4 construct: whole, on cells; also called CHO-K1/huPD-1; CHO-K1-hPD-1 cells
Method: as §1

human PD-1-His protein [8] = biological target: T3, human PD-1-His protein; test: SPR Biacore
[9] = biological target: T4, human PD-1 expressed on cells; test: cell RBA FACS; competitor PD-L2/Fc
[10] = biological target: T4, human PD-1 expressed on cells; test: flow cytometry, biotinylated antibody + FITC-streptavidin, CD3 T cells; panel 'PBMC without stimulation, untreated group'
Method: as §1

[11] = biological target: T4, human PD-1 expressed on cells; test: flow cytometry, biotinylated antibody + FITC-streptavidin, CD3 T cells; panel 'PBMC stimulation for 72h, untreated group' (anti-CD3 plus anti-CD28)
Method: as §1

[12] = biological target: T4, human PD-1 expressed on cells; test: cell RBA FACS; competitor PD-L1/Fc
[13] = biological target: T4, human PD-1 expressed on cells; test: flow cytometry, biotinylated antibody + FITC-streptavidin, CD3 T cells; panel 'PBMC without stimulation, Lag3 antibody treated group' (cells pre-treated with unlabelled HumAb747V-67)
Method: as §1

[14] = biological target: T1, human LAG-3 expressed on cells; test: cell-based or functional assay
[15] = biological target: T4, human PD-1 expressed on cells; test: cell-based or functional assay

Cyno PD-1-His, sequence (B0LAJ3 entry or part of it limits assumed): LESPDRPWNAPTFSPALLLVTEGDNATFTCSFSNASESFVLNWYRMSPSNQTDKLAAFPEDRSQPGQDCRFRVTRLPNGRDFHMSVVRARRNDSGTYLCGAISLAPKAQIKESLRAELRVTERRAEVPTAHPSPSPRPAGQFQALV
T3 sequence (Q15116 25-167 limits assumed): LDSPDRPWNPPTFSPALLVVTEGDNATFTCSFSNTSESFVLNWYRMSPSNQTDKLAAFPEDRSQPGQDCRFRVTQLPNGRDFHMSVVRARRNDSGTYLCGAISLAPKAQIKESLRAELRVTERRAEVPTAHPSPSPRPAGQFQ
T4 sequence (Q15116 25-288): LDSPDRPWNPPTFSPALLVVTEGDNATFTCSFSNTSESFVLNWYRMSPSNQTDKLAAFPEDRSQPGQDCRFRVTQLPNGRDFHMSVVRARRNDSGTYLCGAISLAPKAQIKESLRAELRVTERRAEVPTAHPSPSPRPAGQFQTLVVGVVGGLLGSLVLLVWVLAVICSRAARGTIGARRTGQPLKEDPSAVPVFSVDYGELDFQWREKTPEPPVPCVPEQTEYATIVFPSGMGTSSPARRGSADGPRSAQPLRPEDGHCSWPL

- EC50 (read off the curve) [1]: 1 to 2 nM
- EC50 (read off the curve) [2]: ~1 nM
- koff [3]: 0.000319 s⁻¹
- off-rate ratio to that of mAb747c [3]: 47%
B1: HumAb747V-67 (antibody, human IgG1, V domains shown)
VH: EVQLVQSGAEVKKPGATVKLSCTASGFNIKDDYMHWVKQRPEQGLDWIGWIVPENGNTVYASKFQGKATITADTSTNTAYLELSSLRSEDTAVYYCTVYGDYWGQGTTVTVSS
VL: DIQMTQSPSSLSASVGDRVTITCRASQEISGYLSWLQQKPGGAIKRLIYAASALDSGVPSRFSGSRSGSDYTLTISSLQPEDFADYYCLQYASYPLTFGQGTKLELK
notes: engineered HumAb747-60 variant; human IgG1/kappa constant domains

- Kd (Cyno LAG-3-His): 0.123 nM
- koff (Cyno LAG-3-His): 6.36e-05 s⁻¹
- kon (Cyno LAG-3-His): 519000 M⁻¹ s⁻¹
- Kd (Cyno PD-1-His): 3.61 nM
- koff (Cyno PD-1-His): 0.000775 s⁻¹
- kon (Cyno PD-1-His): 215000 M⁻¹ s⁻¹
- Kd [4]: 1.22 nM
- koff [4]: 0.000243 s⁻¹
- kon [4]: 200000 M⁻¹ s⁻¹
- Kd (human PD-1-His protein [5]): 10.4 nM
- koff (human PD-1-His protein [5]): 0.000935 s⁻¹
- kon (human PD-1-His protein [5]): 89600 M⁻¹ s⁻¹
- EC50 (read off the curve) [6]: ~1 nM
B2: FIT107-1-7b-1 (bispecific antibody, human IgG1, kappa, L234A L235A)
chain 1: not shown
chain 2: EVQLVQSGAEVKKPGATVKLSCTASGFNIKDDYMHWVKQRPEQGLDWIGWIVPENANTVYASKFQGKATITADTSTNTAYLELSSLRSEDTAVYYCTVYGDYWGQGTTVTVSSASTKGPSVFPLAPSSKSTSGGTAALGCLVKDYFPEPVTVSWNSGALTSGVHTFPAVLQSSGLYSLSSVVTVPSSSLGTQTYICNVNHKPSNTKVDKKVEPKSC
chain 3: not shown
notes: FIT-Ig hexamer; outer Fab anti-LAG-3 (HumAb747V-67 with VH G55A), inner Fab anti-PD-1 (HumAb713-7); also called FIT107-7b-1

- EC50 (read off the curve) [7]: ~3 nM
- Kd (human PD-1-His protein [8]): 2.83 nM
- koff (human PD-1-His protein [8]): 0.00035 s⁻¹
- kon (human PD-1-His protein [8]): 124000 M⁻¹ s⁻¹
- IC50 [9]: 1.4 nM
- EC50 (read off the curve) [10]: ~3 nM
- EC50 (read off the curve) [11]: ~2 nM
- IC50 [12]: 0.76 nM
- EC50 (read off the curve) [13]: ~3 nM
B3: HumAb713-7 (antibody, human IgG1, kappa, L234A L235A, V domains shown)
VH: EVQLVESGGGLVQPGGSLRLSCAASGFTSSDYGMHWVRQAPGKGLEWVSYISSGSYTIYYADTVKGRFTISRDNAKNSLYLQMNSLRDEDTAVYYCAKRGGSSHVNVMDYWGQGTTVTVSS
VL: DIQMTQSPSSLSASVGDRVTITCKASDHINNWLAWYQQKPGKAPKLLIYGATSLETGVPSRFSGSGSGTDYTFTISSLQPEDIATYYCQQYWSPPYTFGGGTKVEIKR
notes: humanized mAb713

- MLR, IFN-γ production, EC50 [14]: 0.508 nM
- MLR, IFN-γ production, EC50 [15]: 0.508 nM
B4: FIT107-1-2a (bispecific antibody, human IgG1, kappa, L234A L235A)
chain 1: not shown
chain 2: EVKLVESGGGLVKPGGSLKLSCAASGFTFSFYTMSWVRQTPEKRLEWVATISGGGRDTYYPDSVKGRFTISRDNAKNTLYLHMSSLRSEDTALYYCAGQGGNYLFAYWGQGTLVTVSAASTKGPSVFPLAPSSKSTSGGTAALGCLVKDYFPEPVTVSWNSGALTSGVHTFPAVLQSSGLYSLSSVVTVPSSSLGTQTYICNVNHKPSNTKVDKKVEPKSC
chain 3: DIQMTQSPSSLSASLGERVSLNCRASQEISGYLSWLQQKSDGTIKRLIYAASTLDSGVPKRFSGSRSGSDYSLTISSLESEDFADYYCLQYASYPLTFGAGTKLELKRTVAAPSVFIFPPSDEQLKSGTASVVCLLNNFYPREAKVQWKVDNALQSGNSQESVTEQDSKDSTYSLSSTLTLSKADYEKHKVYACEVTHQGLSSPVTKSFNRGEC

Reference: patent US20210188980A1 (SHANGHAI EPIMAB BIOTHERAPEUTICS, published 2021)
